Experimental findings from the DeepSol protein solubility set are described below.

The nature of the data set: soluble on expression in E. coli; label from the status in PepcDB or PDB records.
On to “MTATLSWIDEITMTELERNPYPVYERLRAEAPLAYVPVLGSFVATTADLCRTIANSPDFEGIITKAGGRTFGHPAVIGVNGEIHRDLRSMVDPALQPSEVDRWVDGLVRPIARRYVEQFENDGKADLVSQYCEPVSVRALGDLLGLNEVSSDTLRDWFHRLSNSFTNAGVDADGEFTNPEGFVQGDEAKAEIRAVVDPLIDKWTVHPDDSAISHWLHDGMPEGQVRDREYIYPTLFVYLLGAMQEPGHGMASTLVGLFTRPEQLEAVIDEPALIPRAISEGMRWTSPIWSATARISTKDVTLGDVFLPEGSVVLLSYGSANHDTAVYDAPSDYDMTRPPLPHLAFGSGNHACAGIYFANHVCRIGLEELFEAIPNLERDSGADVEFWGWGFRGPTALRATWEV”, for which the “soluble on expression in E. coli” value is “not soluble”. For “MTATWEKKEGNEGLLTVTVPAEKVNKALDQAFKKVVKQINVPGFRKGKVPRPIFEQRFGVEALYQDAIDILLPDAYGEAIDETDIKPVAQPEVSVTQIEKGKDFIFEATVTVEPEVKLGDYKGLEIEKQETELSDDELQEAIDHSLGHLAEMVVKEDGVVENGDTVNIDFSGSVDGEEFEGGQAEGYDLEIGSGSFIPGFEEQLEGMKVDEEKDVVVTFPEEYHAEELAGKEATFKTKVNEIKFKEVPELTDEIANELDAEANTVDEYKENLRKRLAEQKATDAENVEKEEAITKATDNTTIDIPEAMVNTELDRMVSEFAQRIQQQGLDLQTYFQISGQDETQLREQMKDDAEQRVKTNLTLTAIAEAEKIEATDEDIDKELEKMSKQFNISVEDIKNTLGNTDIIKNDVRIQKVIDLLRDNAKFVEGTKED” the value was “not soluble”; for “MTCLSRDWATAQRLVEWALASTRCECFNVDSNFMAGLCLVENPTKQHYSFEVRKQVVDRFNAGQSKMDLAREFGLSSDQLVSSWVRAWRAGGDEALRPKPKGRPKGSASSKPLTEEDRLRREVEKLRAENAYLKKLRDLRNQRRS”, “not soluble”. For the sequence “MTDCEFGYIYRLAQDYLQCVLQIPQPGSGPSKTSRVLQNVAFSVQKEVEKNLKSCLDNVNVVSVDTARTLFNQVMEKEFEDGIINWGRIVTIFAFEGILIKKLLRQQIAPDVDTYKEISYFVAEFIMNNTGEWIRQNGGWENGFVKKFEPKSGWMTFLEVTGKICEMLSLLKQYC”, the “soluble on expression in E. coli” value is listed as “soluble”.

For “MTDKNPISEAKRYLDNARTILKEKGNKENRFYRDPKYVKMAGHTAYAGVLLALDACFGDKTKGRKDVGWYKEQLSGMDKTALKNFISAYDLLHVAMSYDGNTDSDIAKLGLTRADEIILWVEQRTVTC”, the “soluble on expression in E. coli” value was “soluble”. To “MTDMDPSNMTGGPMNGHSAEKSSEEKKSPRSSRGVGEDLKNAGKDAMNTMENAGKNAWDKAGELGKSGINTVQSAGSAVKNGAKDLAGKVDKAL” belongs “soluble”; to “MTDNLNLGAIDLGTDDEFIARHIGPRAADTQAMLQRLGYDSLDTLIGNVIPDSIKGSSVLDLPAGMGEAEALASLKAIAARNRALRSFIGQGYYNCHTPAPILRNLLENPAWYTAYTPYQPEISQGRLEALLNFQTLVSDLSGLPIANASMLDEATAAAEAMTFCKRLSKNRTSQAFFASRHCHPQTLDVLRTRAEPLGIEVVVGDESTIEDFSAYFGALLQYPTCDGEIVDYRELVSRFHAVDALVAVAADLLALTLLTPPGEFGADVAIGSAQRFGVPLGFGGPHAAYFATRDAFKRDMPGRLVGVSIDRHGKPAYRLAMQTREQHIRREKATSNICTAQVLLANIASMFAVYHGPQGLLRIARRTHRLTAILAAGLERLGVAVEQKHFFDTLSLATGARTAAIHAKARAAGINLREIDAGRLGLSLDETVRQTDVETLWGLLAEEGQALPDFAALAASSGDRLPVELLRQSAILSHPIFNRHHSETELMRYLRKLADKDLALDRTMIPLGSCTMKLNAASEMIPVTWAEFGNLHPFAPAEQSEGYRQLTDELEAMLCSATGYDAVSLQPNAGSQGEYAGLLAIRAYHQSRGDSQRDICLIPSSAHGTNPATASMVGMRVVVVACDARGNVDVEDLRNKASEHKERLAALMITYPSTHGVFEEAIREICAIVHDCGGQVYIDGANMNAMVGLCAPGKFGGDVSHLNLHKTFCIPHGGGGPGVGPIGVRAHLAPFLPGHARGERKEGAVSAAPYGSASILPITWMYIRMMGGEGLKRASEMAILNANYIAHRLEEHYPVLYAGGNGLVAHECILDLRPLKDSSGISVDDVAKRLMDFGFHAPTMSFPVAGTLMIEPTESESKAELDRFCDAMIRIREEIRAVERGELDKEDNPLKNAPHTAAELLGEWNHAYSREQAAYPLASLVEAKYWPPVGRVDNVYGDRNLTCSCPPIEAYS”, “not soluble”. To “MTEAPKIEKSFNEISDMEQIFVEHHSFGIVSLSSISESLKRLELSADLNIQELLAIKKVLQSSSDMIHFYSDLDNVSFQSLDRLFENLEQFPNLQGSFQAINDGGFLEHFASPELERIRRQLTNSERRVRQILQDMLKEKAELLSENLIASRSGRSVLPVKNTYRNRISGVVHDISSSGSTVYIEPRAVVTLNEEITQLRADERHEESRILHAFSDLLRPHVATIRNNAWILGHLDFVRAKYLFMSDNKATIPEISNDSTLALINVRHPLLSNPVANDLHFDQDLTAIVITGPNTGGKTIMLKTLGLAQLMGQSGLPVLADKGSKIAVFNNIFADIGDEQSIEQSLSTFSSHMTHIVSILNEADHNSLVLFDELGAGTDPQEGASLAMAILEHLRLSNIKTMATTHYPELKAYGIETNFVENASMEFDAETLSPTYRFMQGVPGRSNAFEIASRLGLAPFIVKQAKQMTDSDSDVNRIIEQLEAQTLETRRRLDHIKEVEQENLKFNRAVKKLYNEFSHERDKELEKIYQEAQEIVDMALNESDTILKKLNDKSQLKPHEIIDAKAQIKKLAPQVDLSKNKVLNKAKKIKAARAPRIGDDIIVTSYGQRGTLTSQLKDGRWEAQVGIIKMTLTQDEFTLVRVQEEQKVKSKQINVVKKADSSGPRARLDLRGKRYEEAMQELDNFIDQALLNNMGQVDIIHGIGTGVIREGVTKYLRRNKHVKHFAYAPQNAGGSGATIVTLGLEHHHHHH” belongs “not soluble”; to “MTEEILKQGVGIVETSLTFEPPFCESFERISIDNFPIFALGKEISKEDGIEAMKKYVTSRFWFTYRRDFSPIGGTGPSTDQGWGCMLRCAQMLLGEVLLRRHIGRHFEWDIEKTSEIYEKILQMFFDEKDALYSIHQIAQMGVTEGKEVSKWFGPNTAAQVMKKLTIFDDWSNIAVHVALDNILVKEDAITMATSYPSEDAVKLIMGKKGLQTTKRKNRKNLDFTVKYLKQIKFFKFFNLFQIFYENGLVDKNRLSLSPGNIIPEWRPLLLMIPLRLGLTTINPCYLSAIQEFFKIPQCVGIIGGRPNHALYFVGMSGSKLFYLDPHYCRPKTESTAKMYAEKDSTATTDDVGFSHLEELVPLPSQTADVYTKMDDSTYHCQMMLWIEYENVDPSLALAMFCETRDEFENLCETLQKTTLPASQPPMFEFLQRRPKYLPKFEPYTGVSMKIEMKEFDDIGAANVKIDDDFEVLDVHTEEEDADEDNDDDVANA”, “not soluble”. As for “MTEGDDQLISIRKQLENLNNATDDINSYEMKLETVKKQFCETQLMFNKEMLGIPKKLAKHISKSRQFFDLKSRESEIRRCVQQAAAQFERQKTSVEMAREQVQILHNSLNNNQELDAEKQYVDVIEQQLELVKEAEGECLKAEKCHASRVRDLLQLEMALRKCLEENGSAIKKSRPYYERKEVLTRTMNSQLELMSILEHEVQERKDSYSDSMRALEQISDQIHQERSSQSSLAPSSDAESDSS”, the “soluble on expression in E. coli” value is “not soluble”. With “MTEHRPAIELEEIPTLLERIEGYKGRSRLTQLAIKLNLLIFIRSSELRFARWSEIDFKSGLWVIPEQREAIKGIKHSDRGAKMRRKHYVPLCEQALVILGELKDLTYDVNGDDGFILTGCYDAMKPMSENTINKALRKMGYDTKTDLCGHGFRTLACSALIESGIWPEDVVELQMSHMEKNNVRAAYTHKAKHLEQRRLMLQWWADFLDANGSGMVRPFEFAQGATQYLEHHHHHH”, the “soluble on expression in E. coli” value is “not soluble”. As for “MTEHTGLWLYAVADQLPDGRLPCPAGIDEAPVEAIAHDGLAAVVSPVDLHHYGEEALARRLEDFDWLAATANRHHAVIEAVHHLSTTVPMRLATVYTEPRRVSTLLAEQHDLLRRALDSVAGHTEWGVKAFAVNRPQAPPAAGGEESGAAYLRRRRAELANADAVRQEVWDAAQHAFHELGLLAVAQRRHRPQDAKLTGKPEPMLLNGSFLVEDTEQDAFTKAVSTLTADHPELEIQLSGPWPPYSFAGLAVEA”, the “soluble on expression in E. coli” value is recorded as “not soluble”.
